# Reference: US20050267020A1, “Polypeptides derived from inducible hsp70 and pharmaceutical compositions containing the same” (priority 2001, published 2005)
# Assays:
# HLA-B*0702 = target: T1, HLA-B*0702 (Homo sapiens, UniProt P01889); experiment: Measurement of peptide relative affinity to HLA-B*0702; type: binding; conditions: for Relative affinity: towards HLA-B*0702 molecule, lower = stronger binding
# T1 construct: expressed in transfected cells; host or cells: T2-B7 cells (Tap-/-)
# Experimental: Measurement of Peptide Relative Affinity to HLA class I. Tap−/− cells expressing the studied HLA-class I molecule (3×10^5 cells/mL) were incubated with various concentrations of peptides ranging from 100 μM to 0.1 μM in serum-free RPMI 1640 medium supplemented with 100 ng/ml of human β-2m at 37° C. for 16 hours. Cells were then washed twice and stained with the specific anti-class I mAb followed by FITC conjugated goat anti mouse Ig mAb to quantify the expression of HLA-A*0201. For each peptide concentration, the HLA-specific staining was calculated as the % of the staining obtained with 100 μM of the reference peptide. The relative affinity (RA) is determined as: RA=(Concentration of each peptide that induces 20% of HLA expression/Concentration of the reference peptide that induces 20% of HLA expression). The lower the RA-value, the stronger is the peptide binding to HLA. The mean RA value for each peptide is determined from at least three independent experiments.
# For the study of Relative Affinity to HLA-A*0201, Tap−/− HLA-A*0201 T2 cells, the HLA-A*0201 specific mAb BB7.2 and the reference HLA-A*0201-binding peptide HIVpol 589 (IVGAETFYV) were used. For the study of Relative Affinity to HLA-A*0301, Tap−/− HLA-A*0301 T2-A3 cells are used. For the study of Relative Affinity to HLA-B*0701, Tap−/− HLA-B*0701 T2-B7 cells are used.
# High affinity peptide discovery was also lead for the MHC molecule HLA-B*0702. 11 peptides presenting the primary anchor motif for HLA-B*0702 or predicted to show a high affinity by the computerized program BIMAS were tested for their Relative Affinity.
# HLA-A*0201 [1] = target: T2, HLA-A*0201 (human); experiment: HLA-A*0201 stabilisation on T2 cells, flow cytometry with BB7.2; ratio to reference peptide HIVpol 589
# T2 construct: MHC class I molecule on TAP-deficient T2 cells; stabilised at the surface by the added peptide and detected with mAb BB7.2
# Experimental: For each peptide concentration, the HLA-specific staining was calculated as the % of the staining obtained with 100 μM of the reference peptide. […] The mean RA value for each peptide is determined from at least three independent experiments.
# HLA-A*0201 [2] = target: T2, HLA-A*0201; experiment: decay of peptide-stabilised HLA-A*0201 on T2 cells after Brefeldin A, flow cytometry
# Experimental: Assessment of Peptide/HLA class I Complex Stability. […] Cells were then washed four times to remove free peptide, incubated with Brefeldin A (10 μg/mL) for 1 hour to block cell surface expression of newly synthesized HLA molecules, washed and incubated at 37° C. for 0, 2, 4 or 6 hours. Subsequently, cells were stained with the HLA specific mAb followed by FITC conjugated goat anti mouse Ig mAb.
Molecule,Relative affinity (HLA-B*0702),Relative affinity (HLA-A*0201 [1]),other results
IPTKQTQIF [HSP 420],>10,–,–
GPGPGGFGA [HSP 616],>10,–,–
YPVTNAVITV [HSP 137(10)],>10,–,–
APLSLGLET [HSP 397],>10,–,–
DVAPLSLGL [HSP 395],>10,–,–
YPEEISSMV [HSP 115],>10,–,–
IPTKQTQIFT [HSP 420(10)],>10,–,–
YPVTNAVIT [HSP 137],1.2,–,affinity for HLA-B*0702 (in words) (HLA-B*0702; Relative Affinity determination): high affinity
QVCNPIISGL [HSP 601],>10,–,–
STRIPKVQKL [HSP 340],>10,–,–
YPEEISSMVL [HSP 115(10)],>10,–,–
LLLLDVAPL [HSP 391 (LLLLDVAPL)],–,0.5,"Stability (hrs) (DC50, half life of the HLA-A*0201/peptide complex) (HLA-A*0201 [2]): > 6 h"
SLFEGIDFYT [HSP 286 (SLFEGIDFYT)],–,0.25,"Stability (hrs) (DC50, half life of the HLA-A*0201/peptide complex) (HLA-A*0201 [2]): > 6 h"
LMGDKSENV [HSP 380 (LMGDKSENV)],–,2.5,"Stability (hrs) (DC50, half life of the HLA-A*0201/peptide complex) (HLA-A*0201 [2]): 4 h"
LLDVAPLSL [HSP 393 (LLDVAPLSL)],–,0.4,–
YLGYPVTNA [HSP 134 (YLGYPVTNA)],–,2.5,–
YLGYPVTNAV (also called HSPI34(10)) [HSP 134(10) (YLGYPVTNAV)],–,0.6,–
